Assays:
Assay in all cases: ELISA, antibody coated, OX40-ECD.His mutant supernatant; relative to silent alanine substitutions;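 further: captured OX40 mutant protein detected with HRP-labelled anti-His antibody, absorbance read-out, scaled to the mean signal of control mutants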
human OX40-ECD.His A140G = target: T1, human OX40-ECD.His A140G (human, UniProt P43489 29-214)
T1 construct: extracellular domain; not shown: C-terminal His-tag
T1 sequence (looked up): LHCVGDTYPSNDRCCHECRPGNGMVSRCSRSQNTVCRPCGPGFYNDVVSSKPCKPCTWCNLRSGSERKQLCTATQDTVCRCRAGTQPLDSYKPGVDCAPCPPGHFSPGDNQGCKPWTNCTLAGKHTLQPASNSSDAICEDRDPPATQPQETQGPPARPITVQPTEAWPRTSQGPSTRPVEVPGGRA

human OX40-ECD.His P157A = target: T2, human OX40-ECD.His P157A (human, UniProt P43489 29-214)
T2 construct: extracellular domain; not shown: C-terminal His-tag
T2 sequence (looked up): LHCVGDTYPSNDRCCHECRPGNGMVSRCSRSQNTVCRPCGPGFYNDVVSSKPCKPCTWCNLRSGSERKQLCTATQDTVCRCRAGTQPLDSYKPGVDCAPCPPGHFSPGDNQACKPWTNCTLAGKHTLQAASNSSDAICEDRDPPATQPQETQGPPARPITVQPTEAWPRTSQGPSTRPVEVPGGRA

human OX40-ECD.His V75A = target: T3, human OX40-ECD.His V75A (human, UniProt P43489 29-214)
T3 construct: extracellular domain; not shown: C-terminal His-tag
T3 sequence (looked up): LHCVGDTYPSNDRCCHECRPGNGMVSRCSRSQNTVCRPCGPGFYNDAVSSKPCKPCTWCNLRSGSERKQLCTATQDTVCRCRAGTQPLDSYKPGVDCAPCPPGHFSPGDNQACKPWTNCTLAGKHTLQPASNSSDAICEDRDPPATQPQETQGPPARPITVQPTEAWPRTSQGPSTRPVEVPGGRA

human OX40-ECD.His H153A = target: T4, human OX40-ECD.His H153A (human, UniProt P43489 29-214)
T4 construct: extracellular domain; not shown: C-terminal His-tag
T4 sequence (looked up): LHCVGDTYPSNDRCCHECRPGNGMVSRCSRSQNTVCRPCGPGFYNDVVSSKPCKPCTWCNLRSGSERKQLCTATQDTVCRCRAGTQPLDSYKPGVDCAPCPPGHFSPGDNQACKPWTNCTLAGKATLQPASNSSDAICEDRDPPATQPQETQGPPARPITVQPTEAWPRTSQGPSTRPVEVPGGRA

human OX40-ECD.His R47A = target: T5, human OX40-ECD.His R47A (human, UniProt P43489 29-214)
T5 construct: extracellular domain; not shown: C-terminal His-tag
T5 sequence (looked up): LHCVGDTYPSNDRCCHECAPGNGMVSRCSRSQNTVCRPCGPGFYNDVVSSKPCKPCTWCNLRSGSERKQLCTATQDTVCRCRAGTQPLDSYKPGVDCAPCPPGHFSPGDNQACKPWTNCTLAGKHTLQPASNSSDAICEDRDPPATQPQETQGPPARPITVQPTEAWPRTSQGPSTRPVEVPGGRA

human OX40-ECD.His E45A = target: T6, human OX40-ECD.His E45A (human, UniProt P43489 29-214)
T6 construct: extracellular domain; not shown: C-terminal His-tag
T6 sequence (looked up): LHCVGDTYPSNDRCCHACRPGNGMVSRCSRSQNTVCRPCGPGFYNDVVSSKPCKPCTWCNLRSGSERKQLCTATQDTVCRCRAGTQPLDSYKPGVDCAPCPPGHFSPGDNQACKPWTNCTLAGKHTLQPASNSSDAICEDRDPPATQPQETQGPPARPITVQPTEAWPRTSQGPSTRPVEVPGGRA

human OX40-ECD.His D163A = target: T7, human OX40-ECD.His D163A (human, UniProt P43489 29-214)
T7 construct: extracellular domain; not shown: C-terminal His-tag
T7 sequence (looked up): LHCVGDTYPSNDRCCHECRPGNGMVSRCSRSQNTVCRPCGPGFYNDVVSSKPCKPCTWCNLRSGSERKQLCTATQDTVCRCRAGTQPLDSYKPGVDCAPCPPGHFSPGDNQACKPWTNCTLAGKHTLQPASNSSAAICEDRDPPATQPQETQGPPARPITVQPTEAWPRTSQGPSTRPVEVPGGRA

human OX40-ECD.His G70A = target: T8, human OX40-ECD.His G70A (human, UniProt P43489 29-214)
T8 construct: extracellular domain; not shown: C-terminal His-tag
T8 sequence (looked up): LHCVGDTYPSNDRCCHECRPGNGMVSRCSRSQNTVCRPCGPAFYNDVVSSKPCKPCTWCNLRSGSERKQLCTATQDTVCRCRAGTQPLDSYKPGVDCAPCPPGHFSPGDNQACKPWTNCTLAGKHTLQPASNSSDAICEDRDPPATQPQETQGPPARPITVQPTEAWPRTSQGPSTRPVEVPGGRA

human OX40-ECD.His S77A = target: T9, human OX40-ECD.His S77A (human, UniProt P43489 29-214)
T9 construct: extracellular domain; not shown: C-terminal His-tag
T9 sequence (looked up): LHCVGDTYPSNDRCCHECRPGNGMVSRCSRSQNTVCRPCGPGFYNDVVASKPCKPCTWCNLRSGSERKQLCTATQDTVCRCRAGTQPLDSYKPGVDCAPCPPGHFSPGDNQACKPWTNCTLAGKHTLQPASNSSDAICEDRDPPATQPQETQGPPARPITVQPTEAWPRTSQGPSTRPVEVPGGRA

human OX40-ECD.His A126G = target: T10, human OX40-ECD.His A126G (human, UniProt P43489 29-214)
T10 construct: extracellular domain; not shown: C-terminal His-tag
T10 sequence (looked up): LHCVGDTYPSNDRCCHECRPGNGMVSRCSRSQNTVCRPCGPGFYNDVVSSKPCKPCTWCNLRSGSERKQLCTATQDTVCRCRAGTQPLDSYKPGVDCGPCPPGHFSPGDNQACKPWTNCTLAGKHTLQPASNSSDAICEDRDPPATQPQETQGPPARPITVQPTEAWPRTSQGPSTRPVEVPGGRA

B1: 1.134.9-u1-IgG1L (antibody, V domains shown)
VH: QVQLQESGPGLVKPSGTLSLTCAVSGGSISSYNWWSWVRQPPGKGLEWIGEIYHGGNTNYNPSLKSRVTMSVDNSKNQFSLKLSSVTAADTAVYYCARAPGDWGGSPYFDFWGQGTLVTVSS
VL: SSELTQDPAVSVALGQTVRITCQGDNLRTYYASWYQQKPGQAPILLIYGRNKRPSGIPDRFSGSSSGNTASLTITGAQAEDEAAYYCNSRDSSGNPVVFGGGTKLTVL
notes: fully human IgG1, lambda
Fold Change (human OX40-ECD.His A140G): 0.969
Fold Change (human OX40-ECD.His P157A): 0.992
Fold Change (human OX40-ECD.His V75A): 0.994
Fold Change (human OX40-ECD.His H153A): 0.997
Fold Change (human OX40-ECD.His R47A): 1
Fold Change (human OX40-ECD.His E45A): 1.02
Fold Change (human OX40-ECD.His D163A): 0.318
Fold Change (human OX40-ECD.His G70A): 0.511
Fold Change (human OX40-ECD.His S77A): 0.879
Fold Change (human OX40-ECD.His A126G): 0.954
